Here are results for 4 molecules from US20140046032A1 (Sanofi, published 2014).

Numbering of substitutions follows the chain as printed. Numbers in names are those of the source.

As usually defined, the Kd is the concentration at which binding is half-saturated.

For assay [1], the target named is lectin Maackia amurensis (MAA) (Maackia amurensis). Put plainly: enzyme-linked lectin assay (ELLA) with Maackia amurensis lectin (MAA, α-2,3 sialic acid); signal against µg of mAb, linear axis.
In the next assay the target is T1, recombinant murine FcγRI (murine, UniProt P26151 25-297).
T1 construct: Bought
T1 sequence (looked up): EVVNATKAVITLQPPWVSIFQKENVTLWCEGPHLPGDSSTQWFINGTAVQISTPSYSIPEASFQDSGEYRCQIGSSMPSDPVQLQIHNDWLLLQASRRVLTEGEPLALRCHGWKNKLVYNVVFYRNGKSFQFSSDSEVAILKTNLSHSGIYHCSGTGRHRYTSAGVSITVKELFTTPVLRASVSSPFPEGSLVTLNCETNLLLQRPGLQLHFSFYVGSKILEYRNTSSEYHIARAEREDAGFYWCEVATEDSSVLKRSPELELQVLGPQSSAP
Put plainly: SPR, Biacore 3000.

Assay [2] has as its target T2, recombinant murine FcγRIV (murine, UniProt A0A0B4J1G0 21-203).
T2 construct: Bought
T2 sequence: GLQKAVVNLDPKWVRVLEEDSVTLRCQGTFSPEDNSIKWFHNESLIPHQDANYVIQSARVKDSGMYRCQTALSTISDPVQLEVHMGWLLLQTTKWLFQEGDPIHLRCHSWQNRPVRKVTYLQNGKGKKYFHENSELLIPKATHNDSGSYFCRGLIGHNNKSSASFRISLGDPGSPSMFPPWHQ
The experiment in a line: SPR, Biacore 3000. On the technique in general: SPR reads the build-up and loss of mass on a sensor chip optically.

In assay [3] the target is T3, recombinant murine FcγRIII (murine, UniProt P08508 31-215).
T3 construct: Bought
T3 sequence (looked up): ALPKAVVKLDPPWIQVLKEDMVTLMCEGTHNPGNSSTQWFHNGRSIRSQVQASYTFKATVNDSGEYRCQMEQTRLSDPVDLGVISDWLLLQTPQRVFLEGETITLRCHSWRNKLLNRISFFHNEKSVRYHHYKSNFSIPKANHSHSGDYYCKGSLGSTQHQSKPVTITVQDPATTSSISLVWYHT
Put plainly: SPR, Biacore 3000.

Assay [4] concerns the target T4, recombinant murine FcγRIIb (murine, UniProt P08101 30-207, limits assumed).
T4 construct: Bought
T4 sequence (looked up): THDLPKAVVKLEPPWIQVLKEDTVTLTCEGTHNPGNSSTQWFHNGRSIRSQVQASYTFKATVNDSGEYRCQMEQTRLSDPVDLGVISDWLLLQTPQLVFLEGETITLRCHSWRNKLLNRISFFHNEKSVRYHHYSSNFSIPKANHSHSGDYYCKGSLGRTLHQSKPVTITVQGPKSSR
The experiment in a line: SPR, Biacore 3000.

Sequence of lectin Maackia amurensis (MAA) (Maackia amurensis) (P0DKL3 30-278): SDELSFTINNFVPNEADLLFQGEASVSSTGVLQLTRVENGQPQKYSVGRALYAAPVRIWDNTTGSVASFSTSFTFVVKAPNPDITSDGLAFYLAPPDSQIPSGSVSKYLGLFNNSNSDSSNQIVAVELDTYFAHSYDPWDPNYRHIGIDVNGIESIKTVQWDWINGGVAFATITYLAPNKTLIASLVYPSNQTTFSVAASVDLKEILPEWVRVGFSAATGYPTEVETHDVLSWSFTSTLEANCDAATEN

In the case of fetuin, the EC50 (read off the curve) in assay [1] was 0.2 µg.

B1: α-2,6 sialylated antiAbeta-13C3_D257A mAb (co-expressed with SIAT1 and B4GT1) (antibody, mouse IgG1, kappa)
heavy: QVQLQQSGPELVRPGVSVKISCKGSGYTFTDYAMHWVKQSHAKSLEWIGVISTKYGKTNYNQKFKGKATMTVDKSSSTAYMELARLTSEDSAIYYCARGDDGYSWGQGTSVTVSSAKTTPPSVYPLAPGSAAQTNSMVTLGCLVKGYFPEPVTVTWNSGSLSSGVHTFPAVLQSDLYTLSSSVTVPSSTWPSETVTCNVAHPASSTKVDKKIVPRDCGCKPCICTVPEVSSVFIFPPKPKDVLTITLTPKVTCVVVAISKDDPEVQFSWFVDDVEVHTAQTQPREEQFNSTFRSVSELPIMHQDWLNGKEFKCRVNSAAFPAPIEKTISKTKGRPKAPQVYTIPPPKEQMAKDKVSLTCMITDFFPEDITVEWQWNGQPAENYKNTQPIMDTDGSYFVYSKLNVQKSNWEAGNTFTCSVLHEGLHNHHTEKSLSHSPG
light: DVVMTQTPLSLPVSLGDQASISCRSGQSLVHSNGNTYLHWYLQKPGQSPKLLIYTVSNRFSGVPDRFSGSGSGSDFTLKISRVEAEDLGVYFCSQNTFVPWTFGGGTKLEIKRADAAPTVSIFPPSSEQLTSGGASVVCFLNNFYPKDINVKWKIDGSERQNGVLNSWTDQDSKDSTYSMSSTLTLTKDEYERHNSYTCEATHKTSTSPIVKSFNRNEC
modifications: Fc N-glycan essentially α-2,6-sialylated, G2F/G2F + 4 NeuNAc per mAb (very high sialic acid content)
notes: Small-scale batch LP10094, large-scale batch LP10104 and a CHO-produced batch are treated as this one molecule; also called antiAbeta_13C3_D257A batch LP10104; batch LP10094
As to B1, the binding result (in the assay with recombinant murine FcγRI; in assay [2]) was “no binding” each time.

B2: antiAbeta_13C3_D257A mAb produced without co-expression of SIAT1 and B4GT1 (batch LP10116, low sialic acid content) (antibody, mouse IgG1, kappa)
heavy: B1 heavy
light: B1 light
modifications: Fc N-glycan G0F/G0F, low sialic acid content
notes: also called low sialylated antiAbeta-13C3_D257A
Regarding B2, the binding result (in the assay with recombinant murine FcγRI; in assay [2]) was “no binding” each time.

B3: antiAbeta_13C3 mAb (murine, batch LP09009, low sialic acid content) (antibody, mouse IgG1, kappa)
heavy: B1 heavy with A257D
light: B1 light
modifications: Fc N-glycan with low sialic acid content
notes: Murine IgG1 heavy chain, murine Ckappa light chain; also called antiAbeta-13C13 mAb; original antiAbeta-13C3
With B3, the binding result (in the assay with recombinant murine FcγRI; in assay [2]) was “no binding” throughout. In addition, the Kd worked out at 471 nM in assay [3] and 354 nM in assay [4].
